Assays:
gors2_rat Gorasp2 = gors2_rat Gorasp2 (UniProt Q9R064)
gors1_rat Gorasp1 = gors1_rat Gorasp1 (UniProt O35254)
Chain of gors1_rat Gorasp1 (O35254 whole entry): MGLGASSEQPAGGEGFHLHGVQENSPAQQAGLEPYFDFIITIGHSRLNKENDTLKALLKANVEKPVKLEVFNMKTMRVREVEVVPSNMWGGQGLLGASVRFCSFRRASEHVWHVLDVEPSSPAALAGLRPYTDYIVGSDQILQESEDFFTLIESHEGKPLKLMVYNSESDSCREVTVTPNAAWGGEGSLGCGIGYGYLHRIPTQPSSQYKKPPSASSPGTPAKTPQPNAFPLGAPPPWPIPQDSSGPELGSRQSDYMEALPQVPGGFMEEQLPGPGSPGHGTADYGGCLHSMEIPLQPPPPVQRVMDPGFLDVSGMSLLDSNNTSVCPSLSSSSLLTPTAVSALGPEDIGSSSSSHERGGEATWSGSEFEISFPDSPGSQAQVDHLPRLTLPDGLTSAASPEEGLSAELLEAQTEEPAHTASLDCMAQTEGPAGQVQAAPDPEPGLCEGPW

Chain of Transmembrane emp24 domain-containing protein 2 (Rattus norvegicus (Rat)), Q63524 V200A;V201A (Q63524 whole entry V200A/V201A, the tested form may be a part): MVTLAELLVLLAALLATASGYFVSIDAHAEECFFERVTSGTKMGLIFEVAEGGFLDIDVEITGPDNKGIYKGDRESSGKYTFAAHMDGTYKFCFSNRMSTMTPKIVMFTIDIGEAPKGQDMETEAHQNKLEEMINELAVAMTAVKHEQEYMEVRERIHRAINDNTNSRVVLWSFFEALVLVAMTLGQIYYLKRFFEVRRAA

effect of a mutation on the interaction (gors2_rat Gorasp2): decreasing interaction | effect of a mutation on the interaction (gors1_rat Gorasp1): decreasing interaction
Substance: Transmembrane emp24 domain-containing protein 2 (Rattus norvegicus (Rat)), Q63524 V200A;V201A
